The Kd is a measure of binding affinity in units of concentration. A word on the EC50 (read off the curve): it is the midpoint of the concentration-response curve. Usually koff stands for the first-order rate constant of dissociation. For orientation: kon means the rate constant with which the complex forms.

The source of these data is US20210130444A1 (University of California, published 2021).

Assay [1] deals with Myc-tagged human M1 AQP4 on U87MG cells (human) (UniProt P55087). Briefly: fluorescence ratio imaging on U87MG cells (FIG. 6C).
Myc-tagged human M1 AQP4 on U87MG cells (human), sequence (P55087 whole entry): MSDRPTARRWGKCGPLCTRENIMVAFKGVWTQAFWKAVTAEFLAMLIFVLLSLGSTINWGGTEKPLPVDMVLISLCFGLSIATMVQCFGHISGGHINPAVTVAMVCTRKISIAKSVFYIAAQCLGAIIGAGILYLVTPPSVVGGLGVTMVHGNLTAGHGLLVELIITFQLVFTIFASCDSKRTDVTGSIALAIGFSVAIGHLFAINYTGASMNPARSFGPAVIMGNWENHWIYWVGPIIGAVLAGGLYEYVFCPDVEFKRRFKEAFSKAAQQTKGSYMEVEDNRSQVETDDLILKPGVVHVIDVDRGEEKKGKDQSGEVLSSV
In assay [2] the target is Myc-tagged human M23 AQP4 on U87MG cells (human) (UniProt P55087). Described as above.
Myc-tagged human M23 AQP4 on U87MG cells (human), sequence (P55087 whole entry, canonical isoform): as the sequence (P55087 whole entry) above
Assay [3] deals with Myc-tagged human M1 AQP4 on U87MG cells (human) (UniProt P55087). Briefly: fluorescence ratio imaging on U87MG cells expressing Myc-tagged AQP4, anti-mouse IgG Alexa 488 detection.
For assay [4], the target named is Myc-tagged human M23 AQP4 on U87MG cells (human) (UniProt P55087). Described as above.
The target in assay [5] is T1, human AQP4 M23 isoform on U87MG cells (human, UniProt P55087 23-323).
T1 construct: Tetramers that assemble into orthogonal arrays of particles (OAPs); The chain begins at Met-23 of the long isoform; also called M23 AQP4; M23-AQP4
T1 sequence (P55087 23-323 limits assumed): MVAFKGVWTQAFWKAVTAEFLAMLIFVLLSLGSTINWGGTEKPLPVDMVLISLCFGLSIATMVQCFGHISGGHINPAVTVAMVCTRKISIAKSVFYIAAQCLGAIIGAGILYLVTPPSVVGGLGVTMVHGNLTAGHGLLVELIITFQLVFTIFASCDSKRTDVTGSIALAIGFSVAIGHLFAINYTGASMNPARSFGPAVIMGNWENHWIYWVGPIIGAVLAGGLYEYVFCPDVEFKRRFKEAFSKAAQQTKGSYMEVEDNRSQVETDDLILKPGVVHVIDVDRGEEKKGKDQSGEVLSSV
Briefly: fluorescence ratio imaging on U87MG cells, single-site binding model.

For assay [6], the target named is T2, purified recombinant human M1 AQP4 reconstituted in proteoliposomes (human, UniProt P55087 1-323).
T2 construct: 3% (wt/wt) AQP4 in phosphatidylcholine:phosphatidylserine liposomes on a Biacore L1 chip; also called AQP4-reconstituted proteoliposomes; AQP4-proteoliposomes
T2 sequence (P55087 whole entry, form in doubt): as the sequence (P55087 whole entry) above
Kind of assay: surface plasmon resonance (Biacore T-100), AQP4 proteoliposomes on L1 chip, antibody injected.
Protocol: Surface plasmon resonance. […] The mixture was dialyzed (10,000 dalton cut-off) against PBS at 4° C. for 48 h. […] Proteoliposomes were immobilized on a L1 sensor chip (Biacore) with four injections at 10 min/injection at 2 μl/min to achieve 6000 response units of proteoliposomes immobilization. The surface was then washed with two 20 s injections of 50 mM NaOH at 100 μl/min, and checked for surface quality with a 300 s injection of 0.01 mg/ml BSA at 20 μl/min. Flow channel 1 (Fc 1) was immobilized with 0% AQP4 as reference, and Fc 2 contained the AQP4 proteoliposomes. Binding studies were conducted with PBS at a flow rate of 15 μl/min. rAbs in PBS were injected for 80 s followed by a post-injection period of 240 s. Regeneration was performed by injection of 50 mM NaOH at 100 μl/min for 20 s. Binding studies were done in duplicate. Data were analyzed using Biacore T100 Evaluation software.
Binding of each monoclonal recombinant antibody to AQP4 in reconstituted proteoliposomes was measured by surface plasmon resonance.

The target in assay [7] is M23:CCA mixtures (human M23 AQP4 co-expressed with M1-C13A/C17A) on U87MG cells (human) (UniProt P55087). Kind of assay: two-colour fluorescence ratio imaging on transiently transfected U87MG cells, rAb-53 titration.
In assay [8] the target is T3, human AQP4 M1 isoform on U87MG cells (human, UniProt P55087 1-323).
T3 construct: Water channel; forms individual tetramers, no OAPs; also called M1 AQP4; M1-AQP4
T3 sequence (P55087 whole entry, canonical isoform): as the sequence (P55087 whole entry) above
Kind of assay: two-colour fluorescence ratio imaging on U87MG cells, rAb titration, single-site binding fit.
Description: (§1) FIG. 4B summarizes concentration-dependence binding curves for three recombinant NMO-IgGs, together with curve fits for a single-site binding model.

Assay [9] addresses T1, human AQP4 M23 isoform on U87MG cells. The description is as above.
Description: as §1
Assay [10] has the same target. Kind of assay: two-colour fluorescence ratio imaging on transiently transfected U87MG cells, rAb-53 titration.
Assay [11] has the same target. The assay is described as above. This is another data set of the same source.
The target is the same in assay [12]. The assay is described as above. The source holds these as a separate data set.

Take “monoclonal mouse anti-Myc IgG (Covance) (antibody)”: the Kd in assay [1] and in assay [2] was 10 nM each time. The EC50 (read off the curve) in assay [3] amounted to 2 µg/mL; in assay [4] it was 1 µg/mL.

B1: rAb-53 (recombinant monoclonal NMO-IgG, non-mutated) (antibody, V domains shown)
VH: QVQLQESGAGLVKPSETLSLTCTVSGGSISGHYWNWIRQPPGKGLEWIGYIHYSGSTNYNPSLKSRVTISVDTSKNQFSLKLSSVTAADTAVYYCARAEGRGWSAFYYYYMEVWGKGSTVSVSS
VL: EIVLTQSPGTLSLSPGERATLSCRASQTVRTNYLAWFQQKPGQAPRLLIFGASSRATGIPDRFSGSGSGTDFTLTISRLEPEDFAVYYCQQYGSSPWTFGQGTKVEIKR
notes: Human recombinant IgG made in HEK293 cells; also called NMO-IgG (rAb-53)
Turning to B1, the results for the Kd in assay [5], in assay [6] and in [8] were 44 nM, 27 nM and 2800 nM, respectively. In addition, the koff in assay [6] is 0.00038 s⁻¹. The kon in assay [6] is 14000 M⁻¹ s⁻¹. Also, the EC50 (read off the curve) in assay [7] is 6 µg/mL; in [9], around 7 µg/mL; in assay [10], around 7 µg/mL; in [11], around 7 µg/mL; in [12], around 7 µg/mL.

B2: rAb-58 (recombinant monoclonal NMO-IgG) (antibody, V domains shown)
VH: VQLVESGGGLVQPGGSLRLSCAASGFTFRGYAMNWVRQAPGKGLEWVASISGSGSITQYADSAKGRFTITRDNSKSTLYAHVSSLRADDTAVYYCAKGDYVFDYWGQGTLVTVSS
VL: DIQMTQSPSALSASVGDTVTITCRASQSIRSWLAWYQQKPGKAPKLLIYKASDLQSGVPSRFSGSGSGTDFTLTISGLQPDDFATYYCQHYNSYPYTFGQGTKVEIRR
notes: Human recombinant IgG made in HEK293 cells
In the case of B2, the Kd in [8] came to 147 nM. In assay [9], the “EC50 (read off the curve)” value is around 10 µg/mL and the Kd came to 68 nM.
